# Source: the RNAGym collection of RNA variant scans (doi:10.7554/elife.80360)
# B1: HDV Ribozyme (parent)
# chain: GGCCGGCAUGGUCCCAGCCUCCUCGCUGGCGCCGGCUGGGCAACAUUCCGAGGGGACCGUCCCCUCGGUAAUGGCGAAUGGGACCCA
# Variants of: B1
# Test: self-cleavage, relative activity (ratio to wild type); higher = more cleavage; co-transcriptional
row,Variant,self-cleavage
1,A51C A83G,0.673
2,C24U G74C,0.332
3,A56U A70U,1.09
4,C15A C63A,0.403
5,A43U C48U,0.608
6,C33U U46G,0.65
7,A43G G81A,0.0941
8,C3A C24U,0.0755
9,G2C C33U,0.0608
10,C26G U37A,0.213
11,G31A U65C,0.462
12,U12A G31U,0.0811
13,C13U U46C,0.138
14,G2C G73A,0.0252
15,C3U C58A,0.818
16,G73U A77C,0.0898
17,C41U A71U,0.897
18,G55C C75G,0.208
19,G39A C61G,0.337
20,C32A C57A,0.295
21,C15A A51C,1.14
22,C7A A70C,0.346
23,U37G U46G,0.332
24,C64U G68A,0.821

row,Variant,self-cleavage
1,C18G G52A,0.156
2,G35U C75A,0.138
3,G29C C63A,0.117
4,G35U C62A,0.261
5,A43U G76U,0.307
6,C4A U65C,0.567
7,U9A U60A,0.923
8,C4U G6U,0.219
9,C22U A83G,0.12
10,C22G G74A,0.0241
11,C24G A43G,0.0354
12,C7U C19U,0.0519
13,C36U C48U,0.746
14,G2C C15U,0.0563
15,U12G G39C,0.208
16,C4U G50A,0.686
17,A42G C63G,0.504
18,A8G U37C,1.22
19,C26G A78U,0.401
20,C18U U37G,0.128
21,G1U C18G,0.151
22,G38A U72A,0.155
23,C33A A71U,0.0282
24,U60C C61A,0.831

row,Variant,self-cleavage
1,G1C U69G,0.208
2,U23G U47G,0.731
3,C22G G82A,0.0723
4,C58A C86G,0.909
5,G10A C30A,0.0913
6,C14A A71U,0.852
7,G35U C75G,0.0378
8,G34C G53U,0.163
9,G10A A45U,0.534
10,G31C A56U,0.305
11,C58A U65C,1.19
12,C7G G68C,0.0504
13,U46G U65G,0.712
14,U20G U69C,0.185
15,C21U C57G,0.196
16,C4G C49U,0.612
17,C21A C58A,0.104
18,G55A C63A,1.21
19,U20A G76U,0
20,G50U C75G,0.277
21,A8G C86A,1.15
22,G39C C41G,0.462
23,C18U G52U,0.594
24,C26A G59U,1.12

row,Variant,self-cleavage
1,C21A C57U,0.192
2,U69A C86A,1
3,G28U G76C,0.242
4,G1A G11U,0.0992
5,C13U U79A,0.256
6,G17A C18G,0.095
7,C63G G82U,0.289
8,G11U G55A,0.463
9,C26G C63G,0.653
10,A8C C36A,0
11,U27C G28U,0.0678
12,C19U A56G,0.119
13,C41G A78U,0.178
14,C3U U37G,0.0639
15,A16U A51G,1.04
16,G5A C19U,0
17,G5A G53A,0.248
18,G1U G10A,0.387
19,C3G G67A,0.682
20,A8U C30U,0.529
21,G5C A71G,0.0923
22,U47A G74U,0.447
23,G59A U65C,1.14
24,A56C G59A,1.05

row,Variant,self-cleavage
1,A16G G28C,0.115
2,G31U G55U,0.324
3,C32A U65A,0.309
4,C4U C62G,0.151
5,U27C G67C,0.997
6,C62A G73C,0.465
7,G5A U72C,0.142
8,G1A C21A,0.104
9,G29C G73A,0.0707
10,C36A U60A,0.198
11,G31A G34U,0.0863
12,C64A A77C,0.344
13,U69C G81C,0.231
14,G1C G5C,0
15,G52C U79A,0.906
16,G68C G82U,0.352
17,G2C G68C,0.0244
18,A43U U60C,0.678
19,G34A A83U,0.0831
20,G29C C57G,0.133
21,C85A A87U,1.06
22,C3G A70U,0.636
23,A16G G80C,0.249
24,C26G G68U,0.686

row,Variant,self-cleavage
1,G68U U69A,0.912
2,C4G G25C,0
3,A43G U60A,0.594
4,C44U C64U,0.876
5,U47G G74A,0.435
6,U27C U47A,0.519
7,G11A C62U,0.354
8,C7U U47G,0.9
9,G10U G55U,0.787
10,G5U U69C,0.277
11,C30A C33G,0.128
12,G10U A71C,0.604
13,G38C G59A,0.199
14,G6A G54C,0.672
15,C36G C84G,0.116
16,U46G G76A,0.911
17,G1A U46G,0.138
18,C66A A70U,1.08
19,C14A A70U,0.344
20,G38U G52A,0.305
21,A16U U79C,0.705
22,A16C U46C,0.511
23,A16G A51G,0.703
24,G54C G55C,0.981

row,Variant,self-cleavage
1,G25U G35U,0.147
2,C21G G29A,0
3,G38A A51U,0.268
4,G1A C63A,0.289
5,U12G A83C,1.17
6,C21U C30G,0.107
7,G39C G54C,0.253
8,G50U A56U,1.06
9,G34U A43G,0.0978
10,U23C A43U,0.298
11,C13A U72C,0.0573
12,G76A C85A,0.904
13,G11C U79A,0.0723
14,G1C G2U,0.256
15,G17C U69G,0.317
16,C30A G82A,0.0898
17,U9A G40A,1.02
18,C57A C75U,0.0978
19,G5C C14G,0.111
20,C33A G39C,0.0678
21,C18G C21G,0.175
22,C49A C58A,0.986
23,C7A G31C,1.03
